Assay [1] addresses C3b-B complex (UniProt P01024). As to the kind of experiment: SPR; C3b amine-coupled on CM5 chip; Biacore T100, 25 C; HBS-N with 2 mM NiCl2; factor B 54 nM, Lufaxin 1 uM, together or Lufaxin after formation of C3b-B. Background: Surface plasmon resonance follows binding to a sensor surface in real time, without labels.
Assay [2] has as its target C3b-B complex (UniProt P01024). In words: SPR; C3b amine-coupled on CM5 chip; Biacore T100, 25 C; HBS-N (10 mM HEPES pH 7.4, 150 mM NaCl) with 2 mM MgCl2; factor B 54 nM, factor D 20 nM, Lufaxin up to 1 uM injected in combinations.
Assay [3] addresses C3b (UniProt P01024). As to the kind of experiment: SPR; C3b amine-coupled on CM5 chip; Biacore T100, 25 C; HBS-N with 2 mM NiCl2; factor B 54 nM, Lufaxin 1 uM, together or Lufaxin after formation of C3b-B.

This passage reports half-time of dissociation of C3b-B-Lufaxin from the C3b surface (Ni2+), half-time of dissociation of C3b-B-Lufaxin from the C3b surface (Mg2+) and half-time of dissociation of C3b-B (Ni2+) results from article PMC5583147.

Chain of Lufaxin (Q5WPU8 24-301 limits assumed): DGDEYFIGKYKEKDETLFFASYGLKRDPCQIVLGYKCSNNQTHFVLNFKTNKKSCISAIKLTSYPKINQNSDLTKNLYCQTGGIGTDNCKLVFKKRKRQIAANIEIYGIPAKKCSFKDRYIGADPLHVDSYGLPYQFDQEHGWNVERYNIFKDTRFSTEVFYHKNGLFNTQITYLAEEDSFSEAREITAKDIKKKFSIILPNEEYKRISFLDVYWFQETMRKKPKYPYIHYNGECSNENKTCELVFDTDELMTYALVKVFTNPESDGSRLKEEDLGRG
Chain of UniProt P01024 (P01024 23-667, chain 1 of 2): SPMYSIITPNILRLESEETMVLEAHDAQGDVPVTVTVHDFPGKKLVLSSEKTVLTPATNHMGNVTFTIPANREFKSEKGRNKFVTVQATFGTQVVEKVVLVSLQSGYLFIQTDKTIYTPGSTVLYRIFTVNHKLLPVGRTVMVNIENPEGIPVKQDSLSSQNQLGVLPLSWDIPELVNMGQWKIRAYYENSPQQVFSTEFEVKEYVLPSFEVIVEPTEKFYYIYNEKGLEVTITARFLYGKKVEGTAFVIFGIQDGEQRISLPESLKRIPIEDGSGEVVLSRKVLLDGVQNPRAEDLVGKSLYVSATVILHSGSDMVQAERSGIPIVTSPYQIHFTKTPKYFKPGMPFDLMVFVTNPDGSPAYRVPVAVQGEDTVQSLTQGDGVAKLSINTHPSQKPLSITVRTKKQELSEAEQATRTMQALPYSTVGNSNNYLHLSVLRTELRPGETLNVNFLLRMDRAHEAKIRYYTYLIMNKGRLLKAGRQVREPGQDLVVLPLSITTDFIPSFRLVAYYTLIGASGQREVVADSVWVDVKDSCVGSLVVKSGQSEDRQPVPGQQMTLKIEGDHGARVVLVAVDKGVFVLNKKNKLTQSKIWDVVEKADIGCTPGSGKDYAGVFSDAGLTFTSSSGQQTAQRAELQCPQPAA
Chain of UniProt P01024 (P01024 749-1663, chain 2 of 2): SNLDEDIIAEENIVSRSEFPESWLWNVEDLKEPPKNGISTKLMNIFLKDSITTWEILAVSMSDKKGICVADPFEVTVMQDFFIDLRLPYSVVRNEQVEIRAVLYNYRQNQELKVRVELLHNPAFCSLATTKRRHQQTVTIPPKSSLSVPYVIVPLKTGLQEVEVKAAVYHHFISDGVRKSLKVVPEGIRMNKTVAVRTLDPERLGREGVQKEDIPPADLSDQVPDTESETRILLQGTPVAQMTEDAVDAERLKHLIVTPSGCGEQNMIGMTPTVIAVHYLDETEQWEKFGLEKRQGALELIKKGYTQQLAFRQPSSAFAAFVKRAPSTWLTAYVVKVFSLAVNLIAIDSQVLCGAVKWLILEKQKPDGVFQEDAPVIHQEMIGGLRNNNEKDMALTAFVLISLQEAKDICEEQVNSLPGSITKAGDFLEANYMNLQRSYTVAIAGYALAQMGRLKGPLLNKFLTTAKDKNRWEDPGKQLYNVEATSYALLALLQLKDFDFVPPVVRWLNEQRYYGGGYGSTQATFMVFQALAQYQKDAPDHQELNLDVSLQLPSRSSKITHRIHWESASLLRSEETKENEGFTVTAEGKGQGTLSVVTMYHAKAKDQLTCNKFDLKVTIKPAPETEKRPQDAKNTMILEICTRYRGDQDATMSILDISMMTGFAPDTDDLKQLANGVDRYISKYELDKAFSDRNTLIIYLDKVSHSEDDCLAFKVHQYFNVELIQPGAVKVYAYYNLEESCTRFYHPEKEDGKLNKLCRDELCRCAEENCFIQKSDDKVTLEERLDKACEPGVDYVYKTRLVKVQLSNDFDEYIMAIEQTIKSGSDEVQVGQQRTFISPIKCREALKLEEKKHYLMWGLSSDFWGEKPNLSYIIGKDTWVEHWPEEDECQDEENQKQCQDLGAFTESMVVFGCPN

In assay [1], Lufaxin (natural protein) came in with a half-time of dissociation of C3b-B-Lufaxin from the C3b surface (Ni2+) of 400 s. For the same substance, the half-time of dissociation of C3b-B-Lufaxin from the C3b surface (Mg2+) in assay [2] came out at 135 s. factor B (natural protein) gave a half-time of dissociation of C3b-B (Ni2+) in assay [3] of 600 s.
